The record followed here is the RNAGym collection of RNA variant scans (doi:10.7554/elife.80360).

Sequences and labels used below:
B1: Hairpin Ribozyme (parent)
chain: GUCCUCUUUCACGUGCGCGUGAAAGAGAGAAGUGAACCAGAGAAACACACGUUGUGGUAUAUUACCUGGUA

This series covers variants of B1. Description: self-cleavage, relative activity (ratio to wild type); higher = more cleavage; co-transcriptional.
Consider UUCCUCUUUCACGUGCGCGUGAAAGAGAGAAGUGAACCAGAGAAACACACGUUGUGGUAUAUUAUCUGGUA [G1U C65U], for which the self-cleavage stood at 0.0631.

As for CUCCUCUUUCACGUGCGCGUGAAAGAGAGAAGUUAACCAGAGAAACACACGUUGUGGUAUAUUACCUGGUA [G1C G34U], the self-cleavage was 0.344.

Consider UUCCUCUUUCUCGUGCGCGUGAAAGAGAGAAGUGAACCAGAGAAACACACGUUGUGGUAUAUUACCUGGUA [G1U A11U], for which the self-cleavage came out at 0.201.

Turning to UUCCUCUUUCGCGUGCGCGUGAAAGAGAGAAGUGAACCAGAGAAACACACGUUGUGGUAUAUUACCUGGUA [G1U A11G], the self-cleavage was 0.143.

As to UUCCUCUUUCACGUACGCGUGAAAGAGAGAAGUGAACCAGAGAAACACACGUUGUGGUAUAUUACCUGGUA [G1U G15A], the self-cleavage came out at 0.171.

For the variant UUCCUCUUUCACGUGCGCGUGAAAGAGAGAAGUGAGCCAGAGAAACACACGUUGUGGUAUAUUACCUGGUA [G1U A36G], the self-cleavage was 0.184.

Turning to UUCCUCUUUCACGUGCGCGUGAAAGAGAGAAGUGAACCACAGAAACACACGUUGUGGUAUAUUACCUGGUA [G1U G40C], the self-cleavage came to 0.055.

For UUCCUCUUUCACGUGCUCGUGAAAGAGAGAAGUGAACCAGAGAAACACACGUUGUGGUAUAUUACCUGGUA [G1U G17U], the self-cleavage is 0.162.

On to UUCCUCUUUCACGUGCGCGUGAAAGAGAGAAGUGAACCAGAGACACACACGUUGUGGUAUAUUACCUGGUA [G1U A44C], for which the self-cleavage turned out to be 0.0421.

On to UUCCUCUUUCACGUGCGCGUGAAAGAGAGAAGUGAACCGGAGAAACACACGUUGUGGUAUAUUACCUGGUA [G1U A39G], for which the self-cleavage turned out to be 0.121.

With UUCCUCUUUCACGUGCGCGUGAAAGAGAGAAGUGAACCAGAGAAACACACGUUGUGGUGUAUUACCUGGUA [G1U A59G], the self-cleavage was 0.216.

In the case of CUCCUCUUUCACGUGCGCGUGAAAGAGAGAAGUGAACCAGAGAAACACACGUUGUGGUAUAGUACCUGGUA [G1C U62G], the self-cleavage came to 0.4.

For the variant CUCCUCUUUCACGUGCGCGUGAAAGAGAGAAGUGAACCAGAGAAACACACGUUGUGGUAUAAUACCUGGUA [G1C U62A], the self-cleavage worked out at 0.0347.

Take CUCCUCUUUCACGUGCGCGUGAAAGAGAGAAGUGAACCAGAGAAACACACGUUGUGGUAUAUGACCUGGUA [G1C U63G]: the self-cleavage was found to be 0.0496.

As for UUCGUCUUUCACGUGCGCGUGAAAGAGAGAAGUGAACCAGAGAAACACACGUUGUGGUAUAUUACCUGGUA [G1U C4G], the self-cleavage came out at 0.213.

On to UUCCUCUUUCACGUGCGCGUGAAAGAGAGAAGUGAACCAGAGAAAAACACGUUGUGGUAUAUUACCUGGUA [G1U C46A], for which the self-cleavage was 0.106.

For the variant CUCCUCUUUCACGCGCGCGUGAAAGAGAGAAGUGAACCAGAGAAACACACGUUGUGGUAUAUUACCUGGUA [G1C U14C], the self-cleavage was 0.

With CUCCUCUUUCACGAGCGCGUGAAAGAGAGAAGUGAACCAGAGAAACACACGUUGUGGUAUAUUACCUGGUA [G1C U14A], the self-cleavage was 0.046.

As to CACCUCUUUCACGUGCGCGUGAAAGAGAGAAGUGAACCAGAGAAACACACGUUGUGGUAUAUUACCUGGUA [G1C U2A], the self-cleavage is 0.251.

CGCCUCUUUCACGUGCGCGUGAAAGAGAGAAGUGAACCAGAGAAACACACGUUGUGGUAUAUUACCUGGUA [G1C U2G]: the self-cleavage was determined as 0.306.

Take UUCCUCUUUCACGUGAGCGUGAAAGAGAGAAGUGAACCAGAGAAACACACGUUGUGGUAUAUUACCUGGUA [G1U C16A]: the self-cleavage came to 0.111.

As for CUCCUCGUUCACGUGCGCGUGAAAGAGAGAAGUGAACCAGAGAAACACACGUUGUGGUAUAUUACCUGGUA [G1C U7G], the self-cleavage was 0.258.

Take UGCCUCUUUCACGUGCGCGUGAAAGAGAGAAGUGAACCAGAGAAACACACGUUGUGGUAUAUUACCUGGUA [G1U U2G]: the self-cleavage turned out to be 0.22.

In the case of UUCCUCUUUCACGUGCGCGUGAAAGAGAGAAGUGAACCAGAGAAACACAUGUUGUGGUAUAUUACCUGGUA [G1U C50U], the self-cleavage came to 0.0718.

CUCCUCUAUCACGUGCGCGUGAAAGAGAGAAGUGAACCAGAGAAACACACGUUGUGGUAUAUUACCUGGUA [G1C U8A]: the self-cleavage came out at 0.27.

Take UUCCUCUUUCACGUGCGCGUGAAAGAGAGAAGUGAACCAGAGAAACAAACGUUGUGGUAUAUUACCUGGUA [G1U C48A]: the self-cleavage turned out to be 0.134.

As to UUCCUCUUUCACGUGCGCGUAAAAGAGAGAAGUGAACCAGAGAAACACACGUUGUGGUAUAUUACCUGGUA [G1U G21A], the self-cleavage came to 0.129.

Regarding UUCCUCUUUCACGUGCGCGUGAAAGAGAGAAGUGCACCAGAGAAACACACGUUGUGGUAUAUUACCUGGUA [G1U A35C], the self-cleavage is 0.0858.

Take UUCCUCUUUCACGUGCGCGUGAAAGAGAGAAGUGGACCAGAGAAACACACGUUGUGGUAUAUUACCUGGUA [G1U A35G]: the self-cleavage was found to be 0.0705.

Consider UUCCUCUUUCACGUGCGCGUGAAAGAGAGAAGUGAACCAGAGAAACACACGUUGUGGUAUAUUACCUGGUC [G1U A71C], for which the self-cleavage stood at 0.273.

CUCCUCUUUCACGUGCGCGUGAAAGAGAGAAGUGAACCAGAGAAACACACGUUGUAGUAUAUUACCUGGUA [G1C G56A]: the self-cleavage was 0.0459.

Turning to CUCCUCUUUCACGUGCGCGUGAAAGAGAGAAGUGAACCAGAGAAACACACGUUGUCGUAUAUUACCUGGUA [G1C G56C], the self-cleavage stood at 0.202.

With UUCCUCUUUCACGUGCGCGUGAAAGAGAGAAGUGAACCAGAGAAACACACGUUGUGAUAUAUUACCUGGUA [G1U G57A], the self-cleavage is 0.175.

UUCCUCUUUCACGUGCGCGUGAAAGAGAGAAGUGAACCAGAGAAACACACGUUGUGGUAUAUUACCUGGUA [G1U]: the self-cleavage stood at 0.13.

As to UUCCUCUUUCACGUGCGCGUGAAAGAGUGAAGUGAACCAGAGAAACACACGUUGUGGUAUAUUACCUGGUA [G1U A28U], the self-cleavage was found to be 0.198.

Take UUCCUCUUUCACGUGCGCGUGCAAGAGAGAAGUGAACCAGAGAAACACACGUUGUGGUAUAUUACCUGGUA [G1U A22C]: the self-cleavage came to 0.146.

As to UUCCUCUUUCACGUGCGCGUGAAAGAGAGAAGUGAACCAGAGAAACACACCUUGUGGUAUAUUACCUGGUA [G1U G51C], the self-cleavage was 0.175.

Take UUCCUCUUUCACGUGCGCGUGAAAGAGAGAAGUGAACCAGAGAAACACACAUUGUGGUAUAUUACCUGGUA [G1U G51A]: the self-cleavage was determined as 0.205.
